B1: variant PD-L1 ECD-Fc E27D, N45D, T183A, I188V (Fc fusion, not shown: a dimerising Fc or GST)
chain: FTVTVPKDLYVVEYGSNMTIECKFPVDKQLDLAALIVYWEMEDKDIIQFVHGEEDLKVQHSSYRQRARLLKDQLSLGNAALQITDVKLQDAGVYRCMISYGGADYKRITVKVNAPYNKINQRILVVDPVTSEHELTCQAEGYPKAEVIWTSSDHQVLSGKTTTTNSKREEKLFNVTSTLRINATTNEVFYCTFRRLDPEENHTAELVIPELPLAHPPNER
B2: variant PD-L1 ECD-Fc N45D, K111T, T183A, I188V (Fc fusion, not shown: a dimerising Fc or GST)
chain: FTVTVPKDLYVVEYGSNMTIECKFPVEKQLDLAALIVYWEMEDKDIIQFVHGEEDLKVQHSSYRQRARLLKDQLSLGNAALQITDVKLQDAGVYRCMISYGGADYKRITVTVNAPYNKINQRILVVDPVTSEHELTCQAEGYPKAEVIWTSSDHQVLSGKTTTTNSKREEKLFNVTSTLRINATTNEVFYCTFRRLDPEENHTAELVIPELPLAHPPNER
B3: variant PD-L1 ECD-Fc N45D, F173I, S177C (Fc fusion, not shown: a dimerising Fc or GST)
chain: FTVTVPKDLYVVEYGSNMTIECKFPVEKQLDLAALIVYWEMEDKDIIQFVHGEEDLKVQHSSYRQRARLLKDQLSLGNAALQITDVKLQDAGVYRCMISYGGADYKRITVKVNAPYNKINQRILVVDPVTSEHELTCQAEGYPKAEVIWTSSDHQVLSGKTTTTNSKREEKLINVTCTLRINTTTNEIFYCTFRRLDPEENHTAELVIPELPLAHPPNER
B4: variant PD-L1 ECD-Fc K23N, N45D, Q73R, T163I (Fc fusion, not shown: a dimerising Fc or GST)
chain: FTVTVPKDLYVVEYGSNMTIECNFPVEKQLDLAALIVYWEMEDKDIIQFVHGEEDLKVQHSSYRQRARLLKDRLSLGNAALQITDVKLQDAGVYRCMISYGGADYKRITVKVNAPYNKINQRILVVDPVTSEHELTCQAEGYPKAEVIWTSSDHQVLSGKTTITNSKREEKLFNVTSTLRINTTTNEIFYCTFRRLDPEENHTAELVIPELPLAHPPNER
B5: variant PD-L1 ECD-Fc M41K, D43G, N45D, R64S, S99G (Fc fusion, not shown: a dimerising Fc or GST)
chain: FTVTVPKDLYVVEYGSNMTIECKFPVEKQLDLAALIVYWEKEGKDIIQFVHGEEDLKVQHSSYSQRARLLKDQLSLGNAALQITDVKLQDAGVYRCMIGYGGADYKRITVKVNAPYNKINQRILVVDPVTSEHELTCQAEGYPKAEVIWTSSDHQVLSGKTTTTNSKREEKLFNVTSTLRINTTTNEIFYCTFRRLDPEENHTAELVIPELPLAHPPNER
B6: variant PD-L1 ECD-Fc I98T, F173Y, L196S (Fc fusion, not shown: a dimerising Fc or GST)
chain: FTVTVPKDLYVVEYGSNMTIECKFPVEKQLDLAALIVYWEMEDKNIIQFVHGEEDLKVQHSSYRQRARLLKDQLSLGNAALQITDVKLQDAGVYRCMTSYGGADYKRITVKVNAPYNKINQRILVVDPVTSEHELTCQAEGYPKAEVIWTSSDHQVLSGKTTTTNSKREEKLYNVTSTLRINTTTNEIFYCTFRRSDPEENHTAELVIPELPLAHPPNER
B7: variant PD-L1 ECD-Fc K28R, N45D, V129D, T163N, R195T (Fc fusion, not shown: a dimerising Fc or GST)
chain: FTVTVPKDLYVVEYGSNMTIECKFPVERQLDLAALIVYWEMEDKDIIQFVHGEEDLKVQHSSYRQRARLLKDQLSLGNAALQITDVKLQDAGVYRCMISYGGADYKRITVKVNAPYNKINQRILVVDPDTSEHELTCQAEGYPKAEVIWTSSDHQVLSGKTTNTNSKREEKLFNVTSTLRINTTTNEIFYCTFRTLDPEENHTAELVIPELPLAHPPNER
B8: variant PD-L1 ECD-Fc N45D, N165Y, E170G (Fc fusion, not shown: a dimerising Fc or GST)
chain: FTVTVPKDLYVVEYGSNMTIECKFPVEKQLDLAALIVYWEMEDKDIIQFVHGEEDLKVQHSSYRQRARLLKDQLSLGNAALQITDVKLQDAGVYRCMISYGGADYKRITVKVNAPYNKINQRILVVDPVTSEHELTCQAEGYPKAEVIWTSSDHQVLSGKTTTTYSKREGKLFNVTSTLRINTTTNEIFYCTFRRLDPEENHTAELVIPELPLAHPPNER
B9: variant PD-L1 ECD-Fc N45D, G52V, Q121L, P198S (Fc fusion, not shown: a dimerising Fc or GST)
chain: FTVTVPKDLYVVEYGSNMTIECKFPVEKQLDLAALIVYWEMEDKDIIQFVHVEEDLKVQHSSYRQRARLLKDQLSLGNAALQITDVKLQDAGVYRCMISYGGADYKRITVKVNAPYNKINLRILVVDPVTSEHELTCQAEGYPKAEVIWTSSDHQVLSGKTTTTNSKREEKLFNVTSTLRINTTTNEIFYCTFRRLDSEENHTAELVIPELPLAHPPNER
B10: variant PD-L1 ECD-Fc K23N, N45D, S75P, N120S (Fc fusion, not shown: a dimerising Fc or GST)
chain: FTVTVPKDLYVVEYGSNMTIECNFPVEKQLDLAALIVYWEMEDKDIIQFVHGEEDLKVQHSSYRQRARLLKDQLPLGNAALQITDVKLQDAGVYRCMISYGGADYKRITVKVNAPYNKISQRILVVDPVTSEHELTCQAEGYPKAEVIWTSSDHQVLSGKTTTTNSKREEKLFNVTSTLRINTTTNEIFYCTFRRLDPEENHTAELVIPELPLAHPPNER
B11: variant PD-L1 ECD-Fc M41K, D43G, K44E, N45D, R195G, N201D (Fc fusion, not shown: a dimerising Fc or GST)
chain: FTVTVPKDLYVVEYGSNMTIECKFPVEKQLDLAALIVYWEKEGEDIIQFVHGEEDLKVQHSSYRQRARLLKDQLSLGNAALQITDVKLQDAGVYRCMISYGGADYKRITVKVNAPYNKINQRILVVDPVTSEHELTCQAEGYPKAEVIWTSSDHQVLSGKTTTTNSKREEKLFNVTSTLRINTTTNEIFYCTFRGLDPEEDHTAELVIPELPLAHPPNER
B12: variant PD-L1 ECD-Fc N45D, G102D, R194W, R195G (Fc fusion, not shown: a dimerising Fc or GST)
chain: FTVTVPKDLYVVEYGSNMTIECKFPVEKQLDLAALIVYWEMEDKDIIQFVHGEEDLKVQHSSYRQRARLLKDQLSLGNAALQITDVKLQDAGVYRCMISYGDADYKRITVKVNAPYNKINQRILVVDPVTSEHELTCQAEGYPKAEVIWTSSDHQVLSGKTTTTNSKREEKLFNVTSTLRINTTTNEIFYCTFWGLDPEENHTAELVIPELPLAHPPNER
B13: variant PD-L1 ECD-Fc M41K, D43G, N45D, R64S, R195G (Fc fusion, not shown: a dimerising Fc or GST)
chain: FTVTVPKDLYVVEYGSNMTIECKFPVEKQLDLAALIVYWEKEGKDIIQFVHGEEDLKVQHSSYSQRARLLKDQLSLGNAALQITDVKLQDAGVYRCMISYGGADYKRITVKVNAPYNKINQRILVVDPVTSEHELTCQAEGYPKAEVIWTSSDHQVLSGKTTTTNSKREEKLFNVTSTLRINTTTNEIFYCTFRGLDPEENHTAELVIPELPLAHPPNER
B14: variant PD-L1 ECD-Fc N45D, I148V, R195G (Fc fusion, not shown: a dimerising Fc or GST)
chain: FTVTVPKDLYVVEYGSNMTIECKFPVEKQLDLAALIVYWEMEDKDIIQFVHGEEDLKVQHSSYRQRARLLKDQLSLGNAALQITDVKLQDAGVYRCMISYGGADYKRITVKVNAPYNKINQRILVVDPVTSEHELTCQAEGYPKAEVVWTSSDHQVLSGKTTTTNSKREEKLFNVTSTLRINTTTNEIFYCTFRGLDPEENHTAELVIPELPLAHPPNER
B15: variant PD-L1 ECD-Fc K28E, N45D, W149R, S158G, P198T (Fc fusion, not shown: a dimerising Fc or GST)
chain: FTVTVPKDLYVVEYGSNMTIECKFPVEEQLDLAALIVYWEMEDKDIIQFVHGEEDLKVQHSSYRQRARLLKDQLSLGNAALQITDVKLQDAGVYRCMISYGGADYKRITVKVNAPYNKINQRILVVDPVTSEHELTCQAEGYPKAEVIRTSSDHQVLGGKTTTTNSKREEKLFNVTSTLRINTTTNEIFYCTFRRLDTEENHTAELVIPELPLAHPPNER
B16: variant PD-L1 ECD-Fc N45D, E134G, L213P (Fc fusion, not shown: a dimerising Fc or GST)
chain: FTVTVPKDLYVVEYGSNMTIECKFPVEKQLDLAALIVYWEMEDKDIIQFVHGEEDLKVQHSSYRQRARLLKDQLSLGNAALQITDVKLQDAGVYRCMISYGGADYKRITVKVNAPYNKINQRILVVDPVTSEHGLTCQAEGYPKAEVIWTSSDHQVLSGKTTTTNSKREEKLFNVTSTLRINTTTNEIFYCTFRRLDPEENHTAELVIPELPPAHPPNER
B17: variant PD-L1 ECD-Fc N45D, I148V, R195G, N201D (Fc fusion, not shown: a dimerising Fc or GST)
chain: FTVTVPKDLYVVEYGSNMTIECKFPVEKQLDLAALIVYWEMEDKDIIQFVHGEEDLKVQHSSYRQRARLLKDQLSLGNAALQITDVKLQDAGVYRCMISYGGADYKRITVKVNAPYNKINQRILVVDPVTSEHELTCQAEGYPKAEVVWTSSDHQVLSGKTTTTNSKREEKLFNVTSTLRINTTTNEIFYCTFRGLDPEEDHTAELVIPELPLAHPPNER
B18: variant PD-L1 ECD-Fc N45D, N113Y, R195S (Fc fusion, not shown: a dimerising Fc or GST)
chain: FTVTVPKDLYVVEYGSNMTIECKFPVEKQLDLAALIVYWEMEDKDIIQFVHGEEDLKVQHSSYRQRARLLKDQLSLGNAALQITDVKLQDAGVYRCMISYGGADYKRITVKVYAPYNKINQRILVVDPVTSEHELTCQAEGYPKAEVIWTSSDHQVLSGKTTTTNSKREEKLFNVTSTLRINTTTNEIFYCTFRSLDPEENHTAELVIPELPLAHPPNER
B19: variant PD-L1 ECD-Fc N45D, K111T, R195G (Fc fusion, not shown: a dimerising Fc or GST)
chain: FTVTVPKDLYVVEYGSNMTIECKFPVEKQLDLAALIVYWEMEDKDIIQFVHGEEDLKVQHSSYRQRARLLKDQLSLGNAALQITDVKLQDAGVYRCMISYGGADYKRITVTVNAPYNKINQRILVVDPVTSEHELTCQAEGYPKAEVIWTSSDHQVLSGKTTTTNSKREEKLFNVTSTLRINTTTNEIFYCTFRGLDPEENHTAELVIPELPLAHPPNER

Biological target: human PD-1 stably expressed on Jurkat/IL-2 reporter cells (Jurkat/PD-1 cells) (human, UniProt Q15116 25-288)
Test: flow cytometry, Jurkat/PD-1 cells

Sequence of human PD-1 stably expressed on Jurkat/IL-2 reporter cells (Jurkat/PD-1 cells) (Q15116 25-288): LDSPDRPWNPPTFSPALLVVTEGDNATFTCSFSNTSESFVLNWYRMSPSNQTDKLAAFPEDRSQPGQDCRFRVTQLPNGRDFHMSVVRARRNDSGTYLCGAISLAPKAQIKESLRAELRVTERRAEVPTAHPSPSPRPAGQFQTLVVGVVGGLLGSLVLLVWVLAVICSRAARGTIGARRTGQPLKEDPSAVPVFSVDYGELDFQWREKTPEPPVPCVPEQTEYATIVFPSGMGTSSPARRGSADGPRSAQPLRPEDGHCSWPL

Binder	Fold Increase over WT PD-L1 ECD-Fc [fold]	MFI at 20 nM conc. [MFI]
B1	26.6	133000
B2	21.7	109000
B3	0.4	2200
B4	27.8	139000
B5	26.9	135000
B6	0	236
B7	27.4	137000
B8	17.8	89000
B9	0.1	296
B10	26.4	132000
B11	28.9	145000
B12	2.7	13400
B13	27.4	137000
B14	21.8	109000
B15	0.1	691
B16	0.5	2260
B17	26.1	131000
B18	22.4	112000
B19	13.1	65700

— patent US20260062456A1 (ALPINE IMMUNE SCIENCES, published 2026)
